In US10941182 (Amgen, dated 2021):
Starred links: 1 amine or outer side, 2 acyl side, 3 side chain; linkers in the order of their positions; H or OH if unused. Non-standard residues stand in square brackets, D forms with d. *: point of attachment. dBip = N[C@H](Cc1ccc(-c2ccccc2)cc1)C(=O)O; Oic = O=C(O)[C@@H]1C[C@@H]2CCCC[C@@H]2N1; Phe(4-Cl) = N[C@@H](Cc1ccc(Cl)cc1)C(=O)O; dPhe(4-Cl) = N[C@H](Cc1ccc(Cl)cc1)C(=O)O; Phe(4-I) = N[C@@H](Cc1ccc(I)cc1)C(=O)O; γGlu = O=C(O)[C@H](CCC(=O)[*:2])N[*:1]; NMeR = CN[C@@H](CCCNC(=N)N)C(=O)O; Tridecanoyl = CCCCCCCCCCCCC(=O)*; hArg = N=C(N)NCCCC[C@H](N)C(=O)O; Cha = N[C@@H](CC1CCCCC1)C(=O)O; NMeL = CN[C@@H](CC(C)C)C(=O)O; Tle = CC(C)(C)[C@H](N)C(=O)O; β3hP = O=C(O)C[C@@H]1CCCN1; Nle = CCCC[C@H](N)C(=O)O; Orn = NCCC[C@H](N)C(=O)O; Deg = CCC(N)(CC)C(=O)O; AEEA = NCCOCCOCC(=O)O; Aib = CC(C)(N)C(=O)O; BLeu = β-leucine

T1: human APJ receptor (human, UniProt P35414 1-380)
T1 sequence (looked up): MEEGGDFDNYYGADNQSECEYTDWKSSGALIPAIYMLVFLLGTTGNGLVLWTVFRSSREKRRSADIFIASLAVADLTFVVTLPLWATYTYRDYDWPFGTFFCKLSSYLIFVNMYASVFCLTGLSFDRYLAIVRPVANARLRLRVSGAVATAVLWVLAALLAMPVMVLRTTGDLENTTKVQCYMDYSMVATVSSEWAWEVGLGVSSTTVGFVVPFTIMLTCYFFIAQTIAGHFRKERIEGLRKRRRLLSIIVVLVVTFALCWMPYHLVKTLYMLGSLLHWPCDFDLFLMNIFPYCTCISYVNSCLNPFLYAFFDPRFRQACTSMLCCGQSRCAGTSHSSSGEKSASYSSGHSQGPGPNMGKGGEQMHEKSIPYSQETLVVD

T2: rat APJ receptor (rat, UniProt Q9JHG3 1-377)
T2 sequence (looked up): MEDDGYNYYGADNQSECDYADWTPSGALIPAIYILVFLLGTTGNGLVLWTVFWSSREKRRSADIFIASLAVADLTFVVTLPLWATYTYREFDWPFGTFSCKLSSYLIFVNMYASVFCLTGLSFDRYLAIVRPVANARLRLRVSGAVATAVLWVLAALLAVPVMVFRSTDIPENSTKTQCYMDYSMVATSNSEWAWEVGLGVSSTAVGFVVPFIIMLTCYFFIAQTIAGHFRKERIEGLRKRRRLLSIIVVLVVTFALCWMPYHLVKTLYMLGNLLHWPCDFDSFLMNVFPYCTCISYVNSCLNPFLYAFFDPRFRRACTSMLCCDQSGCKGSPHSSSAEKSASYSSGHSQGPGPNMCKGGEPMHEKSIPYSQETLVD


Legend:
human APJ receptor = target: T1, human APJ receptor; test: cell-based or functional assay
rat APJ receptor = target: T2, rat APJ receptor; test: cell-based or functional assay

EC50 Human APJ Receptor (GTPγS assay) (human APJ receptor) [nM]	EC50 Rat APJ Receptor (GTPγS assay) (rat APJ receptor) [nM]	Binder
94.8	135	Tridecanoyl-[γGlu][AEEA][AEEA]Q[β3hP][NMeR][Cha]SHKG[Oic][Nle][Aib][Phe(4-Cl)]-OH (SMILES CCCCCCCCCCCCC(=O)N[C@@H](CCC(=O)NCCOCCOCC(=O)NCCOCCOCC(=O)N[C@@H](CCC(N)=O)C(=O)N1CCC[C@H]1CC(=O)N(C)[C@@H](CCCNC(=N)N)C(=O)N[C@@H](CC1CCCCC1)C(=O)N[C@@H](CO)C(=O)N[C@@H](Cc1c[nH]cn1)C(=O)N[C@@H](CCCCN)C(=O)NCC(=O)N1[C@H](C(=O)N[C@@H](CCCC)C(=O)NC(C)(C)C(=O)N[C@@H](Cc2ccc(Cl)cc2)C(=O)O)C[C@@H]2CCCC[C@@H]21)C(=O)O) [Apelin polypeptide SEQ ID NO: 550]
5.78	6.68	Tridecanoyl-[γGlu][AEEA][AEEA][dL][hArg]P[NMeR][Cha]SHKG[Oic][Nle]P[dPhe(4-Cl)]-OH (SMILES CCCCCCCCCCCCC(=O)N[C@@H](CCC(=O)NCCOCCOCC(=O)NCCOCCOCC(=O)N[C@H](CC(C)C)C(=O)N[C@@H](CCCCNC(=N)N)C(=O)N1CCC[C@H]1C(=O)N(C)[C@@H](CCCNC(=N)N)C(=O)N[C@@H](CC1CCCCC1)C(=O)N[C@@H](CO)C(=O)N[C@@H](Cc1c[nH]cn1)C(=O)N[C@@H](CCCCN)C(=O)NCC(=O)N1[C@H](C(=O)N[C@@H](CCCC)C(=O)N2CCC[C@H]2C(=O)N[C@H](Cc2ccc(Cl)cc2)C(=O)O)C[C@@H]2CCCC[C@@H]21)C(=O)O) [Apelin polypeptide SEQ ID NO: 292]
6.12	10.4	Tridecanoyl-[γGlu][AEEA][AEEA][Tle][hArg]P[dR][Cha]SHKG[Oic][Nle]P[Phe(4-Cl)]-OH (SMILES CCCCCCCCCCCCC(=O)N[C@@H](CCC(=O)NCCOCCOCC(=O)NCCOCCOCC(=O)N[C@H](C(=O)N[C@@H](CCCCNC(=N)N)C(=O)N1CCC[C@H]1C(=O)N[C@H](CCCNC(=N)N)C(=O)N[C@@H](CC1CCCCC1)C(=O)N[C@@H](CO)C(=O)N[C@@H](Cc1c[nH]cn1)C(=O)N[C@@H](CCCCN)C(=O)NCC(=O)N1[C@H](C(=O)N[C@@H](CCCC)C(=O)N2CCC[C@H]2C(=O)N[C@@H](Cc2ccc(Cl)cc2)C(=O)O)C[C@@H]2CCCC[C@@H]21)C(C)(C)C)C(=O)O) [Apelin polypeptide SEQ ID NO: 557]
0.698	1.02	Tridecanoyl-[γGlu][AEEA][AEEA][Orn]F[hArg][hArg]Q[NMeR]P[NMeR][Cha]SHKG[Oic][Nle]P[Phe(4-Cl)]-OH (SMILES CCCCCCCCCCCCC(=O)N[C@@H](CCC(=O)NCCOCCOCC(=O)NCCOCCOCC(=O)N[C@@H](CCCN)C(=O)N[C@@H](Cc1ccccc1)C(=O)N[C@@H](CCCCNC(=N)N)C(=O)N[C@@H](CCCCNC(=N)N)C(=O)N[C@@H](CCC(N)=O)C(=O)N(C)[C@@H](CCCNC(=N)N)C(=O)N1CCC[C@H]1C(=O)N(C)[C@@H](CCCNC(=N)N)C(=O)N[C@@H](CC1CCCCC1)C(=O)N[C@@H](CO)C(=O)N[C@@H](Cc1c[nH]cn1)C(=O)N[C@@H](CCCCN)C(=O)NCC(=O)N1[C@H](C(=O)N[C@@H](CCCC)C(=O)N2CCC[C@H]2C(=O)N[C@@H](Cc2ccc(Cl)cc2)C(=O)O)C[C@@H]2CCCC[C@@H]21)C(=O)O) [Apelin polypeptide SEQ ID NO: 297]
36	29	Tridecanoyl-[γGlu][AEEA][AEEA][dQ][hArg][β3hP][NMeR][Cha]SHKG[Oic][Nle]P[dPhe(4-Cl)]-OH (SMILES CCCCCCCCCCCCC(=O)N[C@@H](CCC(=O)NCCOCCOCC(=O)NCCOCCOCC(=O)N[C@H](CCC(N)=O)C(=O)N[C@@H](CCCCNC(=N)N)C(=O)N1CCC[C@H]1CC(=O)N(C)[C@@H](CCCNC(=N)N)C(=O)N[C@@H](CC1CCCCC1)C(=O)N[C@@H](CO)C(=O)N[C@@H](Cc1c[nH]cn1)C(=O)N[C@@H](CCCCN)C(=O)NCC(=O)N1[C@H](C(=O)N[C@@H](CCCC)C(=O)N2CCC[C@H]2C(=O)N[C@H](Cc2ccc(Cl)cc2)C(=O)O)C[C@@H]2CCCC[C@@H]21)C(=O)O) [Apelin polypeptide SEQ ID NO: 301]

Second part, the binder before the results:

Binder	EC50 Human APJ Receptor (GTPγS assay) (human APJ receptor) [nM]	EC50 Rat APJ Receptor (GTPγS assay) (rat APJ receptor) [nM]
Tridecanoyl-[γGlu][AEEA][AEEA][dQ][hArg][Deg][dR][Cha]SHKG[Oic][Nle]P[Phe(4-Cl)]-OH (SMILES CCCCCCCCCCCCC(=O)N[C@@H](CCC(=O)NCCOCCOCC(=O)NCCOCCOCC(=O)N[C@H](CCC(N)=O)C(=O)N[C@@H](CCCCNC(=N)N)C(=O)NC(CC)(CC)C(=O)N[C@H](CCCNC(=N)N)C(=O)N[C@@H](CC1CCCCC1)C(=O)N[C@@H](CO)C(=O)N[C@@H](Cc1c[nH]cn1)C(=O)N[C@@H](CCCCN)C(=O)NCC(=O)N1[C@H](C(=O)N[C@@H](CCCC)C(=O)N2CCC[C@H]2C(=O)N[C@@H](Cc2ccc(Cl)cc2)C(=O)O)C[C@@H]2CCCC[C@@H]21)C(=O)O) [Apelin polypeptide SEQ ID NO: 455]	2.48	10.3
Tridecanoyl-[γGlu][AEEA][AEEA][Nle][dR]Q[hArg]P[dR][NMeL]SHKG[Oic][Phe(4-I)]P[dBip]-OH (SMILES CCCCCCCCCCCCC(=O)N[C@@H](CCC(=O)NCCOCCOCC(=O)NCCOCCOCC(=O)N[C@@H](CCCC)C(=O)N[C@H](CCCNC(=N)N)C(=O)N[C@@H](CCC(N)=O)C(=O)N[C@@H](CCCCNC(=N)N)C(=O)N1CCC[C@H]1C(=O)N[C@H](CCCNC(=N)N)C(=O)N(C)[C@@H](CC(C)C)C(=O)N[C@@H](CO)C(=O)N[C@@H](Cc1c[nH]cn1)C(=O)N[C@@H](CCCCN)C(=O)NCC(=O)N1[C@H](C(=O)N[C@@H](Cc2ccc(I)cc2)C(=O)N2CCC[C@H]2C(=O)N[C@H](Cc2ccc(-c3ccccc3)cc2)C(=O)O)C[C@@H]2CCCC[C@@H]21)C(=O)O) [Apelin polypeptide SEQ ID NO: 314]	2.77	6.81
Tridecanoyl-[γGlu][AEEA][AEEA][dQ][hArg]P[hArg][Cha]SHKG[Oic][Nle]P[Phe(4-Cl)]-OH (SMILES CCCCCCCCCCCCC(=O)N[C@@H](CCC(=O)NCCOCCOCC(=O)NCCOCCOCC(=O)N[C@H](CCC(N)=O)C(=O)N[C@@H](CCCCNC(=N)N)C(=O)N1CCC[C@H]1C(=O)N[C@@H](CCCCNC(=N)N)C(=O)N[C@@H](CC1CCCCC1)C(=O)N[C@@H](CO)C(=O)N[C@@H](Cc1c[nH]cn1)C(=O)N[C@@H](CCCCN)C(=O)NCC(=O)N1[C@H](C(=O)N[C@@H](CCCC)C(=O)N2CCC[C@H]2C(=O)N[C@@H](Cc2ccc(Cl)cc2)C(=O)O)C[C@@H]2CCCC[C@@H]21)C(=O)O) [Apelin polypeptide SEQ ID NO: 488]	0.198	1.72
Tridecanoyl-[γGlu][AEEA][AEEA][dQ][hArg][Oic][dR][Cha]SHKG[Oic][Nle]P[Phe(4-Cl)]-OH (SMILES CCCCCCCCCCCCC(=O)N[C@@H](CCC(=O)NCCOCCOCC(=O)NCCOCCOCC(=O)N[C@H](CCC(N)=O)C(=O)N[C@@H](CCCCNC(=N)N)C(=O)N1[C@H](C(=O)N[C@H](CCCNC(=N)N)C(=O)N[C@@H](CC2CCCCC2)C(=O)N[C@@H](CO)C(=O)N[C@@H](Cc2c[nH]cn2)C(=O)N[C@@H](CCCCN)C(=O)NCC(=O)N2[C@H](C(=O)N[C@@H](CCCC)C(=O)N3CCC[C@H]3C(=O)N[C@@H](Cc3ccc(Cl)cc3)C(=O)O)C[C@@H]3CCCC[C@@H]32)C[C@@H]2CCCC[C@@H]21)C(=O)O) [Apelin polypeptide SEQ ID NO: 486]	1.79	4.04
Tridecanoyl-[γGlu][AEEA][AEEA][Orn]F[hArg][hArg][BLeu][hArg]P[hArg][Cha]SHKG[Oic][Nle]P[Phe(4-Cl)]-OH [Apelin polypeptide SEQ ID NO: 307]	0.305	0.31
Tridecanoyl-[γGlu][AEEA][AEEA][Tle]RP[NMeR][Cha]SHKG[Oic][Nle]P[Phe(4-Cl)]-OH (SMILES CCCCCCCCCCCCC(=O)N[C@@H](CCC(=O)NCCOCCOCC(=O)NCCOCCOCC(=O)N[C@H](C(=O)N[C@@H](CCCNC(=N)N)C(=O)N1CCC[C@H]1C(=O)N(C)[C@@H](CCCNC(=N)N)C(=O)N[C@@H](CC1CCCCC1)C(=O)N[C@@H](CO)C(=O)N[C@@H](Cc1c[nH]cn1)C(=O)N[C@@H](CCCCN)C(=O)NCC(=O)N1[C@H](C(=O)N[C@@H](CCCC)C(=O)N2CCC[C@H]2C(=O)N[C@@H](Cc2ccc(Cl)cc2)C(=O)O)C[C@@H]2CCCC[C@@H]21)C(C)(C)C)C(=O)O) [Apelin polypeptide SEQ ID NO: 442]	2	2.16
